Experimental data from US8309523 (VIB VZW, dated 2012).
Numbering of substitutions follows the chain as printed.

Columns and labels:
Assay in all cases: bio-IP from HEK293T cells, anti-TRAF6 immunoblot
[1] = molecular target: T1, p76 fragment of MALT1 (Avi-tagged expression construct) (human, UniProt Q9UDY8 150-824, Avi-tag biotinylated in vivo by co-expressed BirA)
T1 construct: domain: p76 cleavage fragment; Lacks the N-terminal death domain; also called MALT1 p76; 76 kDa C-terminal fragment
T1 sequence (looked up): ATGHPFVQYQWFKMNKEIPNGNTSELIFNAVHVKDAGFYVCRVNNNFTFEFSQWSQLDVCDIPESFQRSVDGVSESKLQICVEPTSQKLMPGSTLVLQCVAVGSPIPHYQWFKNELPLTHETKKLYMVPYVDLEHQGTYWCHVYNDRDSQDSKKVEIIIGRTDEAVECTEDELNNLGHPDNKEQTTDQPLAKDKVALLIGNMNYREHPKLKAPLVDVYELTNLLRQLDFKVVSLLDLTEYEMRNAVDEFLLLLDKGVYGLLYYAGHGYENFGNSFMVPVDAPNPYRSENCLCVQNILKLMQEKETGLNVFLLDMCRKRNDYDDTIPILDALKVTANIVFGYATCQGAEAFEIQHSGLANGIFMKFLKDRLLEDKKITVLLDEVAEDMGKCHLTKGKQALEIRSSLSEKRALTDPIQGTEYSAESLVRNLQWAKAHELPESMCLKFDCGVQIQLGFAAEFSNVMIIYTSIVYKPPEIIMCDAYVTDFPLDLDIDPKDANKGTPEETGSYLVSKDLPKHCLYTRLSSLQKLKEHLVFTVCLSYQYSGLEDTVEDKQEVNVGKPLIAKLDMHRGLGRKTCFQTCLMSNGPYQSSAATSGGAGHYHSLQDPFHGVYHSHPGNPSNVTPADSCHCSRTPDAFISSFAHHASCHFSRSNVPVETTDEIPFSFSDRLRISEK
Excerpt: (§1) FIG. 5: p76 activates NFκB via TRAF6. […] Panel B) TRAF6 mediates NFκB signaling by p76. Top: NFκB-reporter assays of HEK293T cells transiently expressing MALT1, p76 and mutants or MALT1-C. Bottom: MALT1, p76 or MALT1-C, transiently expressed in HEK293T cells, were purified via bio-IPs and immunoblotted with anti-MALT1 (to show equal expression), anti-TRAF6 and anti-BCL10. Panel C) p76 induces polyubiquitination of IKKγ. Immunoblot analysis of bio-IP and IKKγ-IP of 293T cells transfected with pcD-F-IKKγ and pcd-HA-Ub in combination with indicated Avi-tagged MALT1 constructs. Panel D) BCL10 is not involved in NFκB signaling by p76. NFκB reporter assays of HEK-293T cells transfected with siRNA duplexes against MALT1, BCL10 or GFP (as control) followed by transient transfection with p76. The expression levels were determined by immunoblot with anti-MALT1 and anti-BCL10. NFκB-dependent luciferase activity […] is shown as fold induction of vector-transfected cells and represents the mean+/−S.D. of three independent experiments.
(§2) NFκB activation by MALT1 requires TRAF6 binding via two distinct sites (19), which are both present in the p76 cleavage fragment. Mutation of one TRAF6 binding site, either E313A/E316A (T6Ig-m) or E806A (T6C-m), abolished the potential of p76 to activate NFκB signaling in 293T cells (FIG. 5, Panel B). […] Furthermore, NFκB activation by p76 in 293T cells was associated with increased polyubiquitination of IKKγ (FIG. 5, Panel C).

[2] = molecular target: T2, p76 T6Ig-m (E313A/E316A) (human, UniProt Q9UDY8 150-824, Avi-tag biotinylated in vivo by co-expressed BirA)
T2 construct: domain: p76 cleavage fragment
T2 sequence (looked up): T1 sequence (looked up) with E164A, E167A
Excerpt: as §1, §2

[3] = molecular target: T3, p76 T6Ig/C-m (E313A/E316A and E806A) (human, UniProt Q9UDY8 150-824, Avi-tag biotinylated in vivo by co-expressed BirA)
T3 construct: domain: p76 cleavage fragment
T3 sequence (looked up): T1 sequence (looked up) with E164A, E167A, E657A
Excerpt: as §1, §2

B1: TRAF6 (other, UniProt Q9Y4K3 1-522, looked up)
chain: MSLLNCENSCGSSQSESDCCVAMASSCSAVTKDDSVGGTASTGNLSSSFMEEIQGYDVEFDPPLESKYECPICLMALREAVQTPCGHRFCKACIIKSIRDAGHKCPVDNEILLENQLFPDNFAKREILSLMVKCPNEGCLHKMELRHLEDHQAHCEFALMDCPQCQRPFQKFHINIHILKDCPRRQVSCDNCAASMAFEDKEIHDQNCPLANVICEYCNTILIREQMPNHYDLDCPTAPIPCTFSTFGCHEKMQRNHLARHLQENTQSHMRMLAQAVHSLSVIPDSGYISEVRNFQETIHQLEGRLVRQDHQIRELTAKMETQSMYVSELKRTIRTLEDKVAEIEAQQCNGIYIWKIGNFGMHLKCQEEEKPVVIHSPGFYTGKPGYKLCMRLHLQLPTAQRCANYISLFVHTMQGEYDSHLPWPFQGTIRLTILDQSEAPVRQNHEEIMDAKPELLAFQRPTIPRNPKGFGYVTFMHLEALRQRTFIKDDTLLVRCEVSTRFDMGSLRREGFQPRSTDAGV
notes: Co-precipitated from lysates of human cell lines
binding result [1]: binds | binding result [2]: binds | binding result [3]: no binding
